Assay results published in patent US20150119254, “NUCLEIC ACID FRAGMENT BINDING TO TARGET PROTEIN” (RIKEN, published 2015).

What was measured:
[1] = target: T1, VEGF-165 (Homo sapiens, UniProt P15692-4 P15692-4:27-191); experiment: SPR; 10 nM VEGF-165, 930 s; details: tags: PeproTech; chain copies: 2 (dimer, concentrations stated in terms of dimer)
Experimental: (§1) FIGS. 15A to 15C show the SPR sensorgrams wherein 2.5 nM, 5 nM, or 10 nM VEGF-165 was injected. […] Each sensorgram was normalized to the molecular weight of a DNA fragment bound with SPR, the molecular weight of an injected protein, and the amount of the SPR-bound DNA fragment immobilized (RU). The injection time is 480 seconds. The dissociation time is 480 seconds.
(§2) Five types of sequences were selected from the sequences shown in Table 8 and analyzed for their VEGF-165-binding ability by surface plasmon resonance (SPR) assay using BIACORE 3000 (GE Healthcare Japan Corp.) and 57-mer DNA fragments (Table 9) truncated at a primer region. A previously reported 57-mer DNA fragment comprising the DNA sequence of VEGF-165 was also prepared and analyzed as a control.

[2] = target: T2, IFN-gamma (UniProt P01579 P01579:24-166); experiment: SPR; existing aptamer control; details: tags: PeproTech; chain copies: 2
T2 sequence (P01579 24-166, one chain of several): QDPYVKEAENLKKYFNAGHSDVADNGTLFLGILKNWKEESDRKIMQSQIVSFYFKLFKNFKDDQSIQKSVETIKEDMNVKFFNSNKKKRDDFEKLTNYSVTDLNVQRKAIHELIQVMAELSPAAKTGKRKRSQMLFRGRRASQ

[3] = target: T2, IFN-gamma; experiment: SPR; Bound 0.14; details: tags: PeproTech; chain copies: 2
[4] = target: T2, IFN-gamma; experiment: SPR; 150 nM IFN-gamma, 930 s; details: tags: PeproTech; chain copies: 2
Experimental: as §1, with “19A” for “15A”, “19C” for “15C”, “50” for “2.5”, “100” for “5”, “150” for “10”, “IFN-γ” for “VEGF-165”
Five types of sequences were selected from the sequences shown in Table 12 and analyzed for their IFN-γ-binding ability by surface plasmon resonance assay and 57-mer DNA fragments (Table 13) truncated at a primer region. A previously reported 57-mer DNA fragment comprising the DNA sequence of IFN-γ was also prepared and analyzed as a control.

[5] = target: T1, VEGF-165; experiment: SPR; 25 C; details: tags: PeproTech; chain copies: 2 (dimer, concentrations stated in terms of dimer)
Experimental: as §2
(§3) The DNA fragments used in the assay were subjected to curve fitting using BiaEvaluation software attached to Biacore 3000 and reaction models of Langmuir with mass transfer.

[6] = target: T1, VEGF-165; experiment: SPR; existing aptamer control; 25 C; details: tags: PeproTech; chain copies: 2 (dimer, concentrations stated in terms of dimer)
[7] = target: T1, VEGF-165; experiment: SPR; printed as uM, evidently pM; existing aptamer control; details: tags: PeproTech; chain copies: 2 (dimer, concentrations stated in terms of dimer)
Experimental: as §2, §3

[8] = target: T1, VEGF-165; experiment: SPR; random control; details: tags: PeproTech; chain copies: 2 (dimer, concentrations stated in terms of dimer)
[9] = target: T1, VEGF-165; experiment: SPR; previously reported aptamer control; details: tags: PeproTech; chain copies: 2 (dimer, concentrations stated in terms of dimer); label: 5' biotin-dT
Experimental: For comparison, 98-mer (full length) N43Ds-09-1, full-length DNA fragments N43Ds-09-1(AT) and N43Ds-09-1(G) with the artificial base Ds replaced with a natural base, and a control DNA fragment reported as a VEGF-binding DNA aptamer (VEGF binding DNA 35, 35 mer) were also assayed under the same conditions. As in the full length binding analysis of Example 2, each DNA fragment having biotinylated T added to the end for the direct immobilization of the DNA fragment onto an SA chip (GE Healthcare Japan Corp.) was prepared by chemical synthesis and gel purification. For the immobilization of each DNA fragment onto the sensor chip, a DNA solution diluted with a PBS solution to 25 nM was subjected to folding treatment (90° C. for 3 min→60° C. for 3 min→25° C.), and Nonidet P-40 was then added thereto at a final concentration of 0.05%. The resulting DNA solution (5 μl; corresponding to 1 min) was injected to the SA chip at a flow rate of 5 μl/min to immobilize the DNA fragment onto the chip. […]
The interaction between the immobilized DNA fragment and VEGF-165 was detected under monitoring by the injection of 12.5 nM, 25 nM, 37.5 nM, 50 nM, 62.5 nM, and 75 nM VEGF-165 solutions (diluted with buffer solution A; in terms of dimer) at the Kinetic Injection mode. […]

[10] = target: T1, VEGF-165; experiment: SPR; 25 C; details: tags: PeproTech; chain copies: 2 (dimer, concentrations stated in terms of dimer); remark: listed apart in the source

T1 sequence (P15692 other isoform, or with tags, fused parts or gaps): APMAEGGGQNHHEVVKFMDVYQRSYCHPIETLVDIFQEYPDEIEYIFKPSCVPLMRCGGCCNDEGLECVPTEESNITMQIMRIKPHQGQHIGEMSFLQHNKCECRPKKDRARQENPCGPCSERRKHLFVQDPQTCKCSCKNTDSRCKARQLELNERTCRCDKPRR

B1: VG02bA-57 (ssDNA)
DNA: ATCAGTCCACATACGCGGGGGTGTTGAAGGGTTAGTCGGAAGTAGTGTGTACAGAG
B1 gave a binding signal [1] of 0.31 bound ratio.

B2: VG08A-57 (ssDNA)
DNA: ATCAGTCCACGAGATGGATGGTAGTGGCCGAACGGGGGGGATGGAGAAGCTGGCTG
B2 showed a binding signal [1] of 0.01 bound ratio.

B3: VG01A-57 (ssDNA)
DNA: ATCAGTCCACAAAGTGCTGGGTCCGAATGGCGGGGGGTTAGGCCTCTTTGGGGCGG
Work on B3 yielded a binding signal [1] of 0.37 bound ratio.

B4: contIF-57 (ssDNA)
DNA: TTCTGTCAATCGATCGTATCAGTCCACAATGGGGTTGGTTGTGTTGGGTGTTGTGT
With B4 the Kd [2] was 67 nM.

B5: IFd1-3A-45 (ssDNA)
DNA: TCGGGTCATTTAATAATGTAGGTATGGGCTAGGCAGCTAGTGGAT
B5 was tested, and the Kd [3] was > 200 nM.

B6: IF11A-57 (ssDNA)
DNA: ATCAGTCCACCTATGTGGGTTGGATGGGGTGTATGTTAGTAGGGCTAAGGAGGTGG
With B6 the binding signal [4] was 0.46 bound ratio.

B7: VG20A-57 (ssDNA)
DNA: TCAGTCCACGGTAAACTGAGTCCGAAGGGGCATGCAGTGAACCCGAATGGGTCCGG
Binder B7 has a Kd [5] of 0.22 nM.

B8: IF07bA-57 (ssDNA)
DNA: ATCAGTCCACTCGGGTCGTTTAATAATGTAGGTATGGGCTAGGCAGCTAGTGGATG
B8 was tested, and the binding signal [4] was 0.05 bound ratio.

B9: IF04A-57 (ssDNA)
DNA: ATCAGTCCACTAATCAGGAAGAAGATAGGGTTTGTCTTATGTTGCCACGCTGGGAG
B9 was tested, and the binding signal [4] was 0.08 bound ratio.

B10: contVG-45 (ssDNA)
DNA: ATCGTATCAGTCCACAAGCCCGTCTTCCAGACAAGAGTGCAGGGC
Binder B10 has a Kd [6] of 0.081 nM.

B11: contVG-57 (ssDNA)
DNA: TCTGTCAATCGATCGTATCAGTCCACAAGCCCGTCTTCCAGACAAGAGTGCAGGGC
In the case of B11, the Kd [7] is reported as 0.046 nM.

B12: contVG-47 (ssDNA)
DNA: CGATCGTATCAGTCCACAAGCCCGTCTTCCAGACAAGAGTGCAGGGC
B12 was tested, and the Kd [6] was 0.044 nM.

B13: VG02aA-57 (ssDNA)
DNA: ATCAGTCCACATCGAGCGTGAGGTCCGAAAGGCGACTCTTATAACATCAAGTAATG
B13 showed a binding signal [1] of 0.01 bound ratio.

B14: Random-45 (ssDNA)
DNA: ATGCTAGAGCATTGCGTAGAAGCTTGATATGTTGCTGGCCCGGAC
B14 showed a binding signal [8] of 0.01 bound ratio.

B15: VEGF binding DNA 35 (ssDNA)
DNA: TTGCACTCTGTGGGGGTGGACGGGCCGGGTAGATA
With B15 the Kd [9] was > 100 nM.

B16: VGd1-2A-45 (ssDNA)
DNA: GTAAACTGCGTCCGAAGGGGCATGCAGTGAACCCGAATGGGTCCG
Work on B16 yielded a Kd [10] of 0.5 nM.

B17: IF07aA-57 (ssDNA)
DNA: ATCAGTCCACTCCTTCTGTCATAGGGCAGGCGCATTTGGTGTAGAGTTTATCTTGG
In the case of B17, the binding signal [4] is reported as 0.19 bound ratio.
